From patent US20240400614A1, “CLEAVABLE PEPTIDES AND METHODS OF USE THEREOF” (Bright Peak Therapeutics AG, priority 2023, published 2024)
Square brackets hold non-standard residues; d marks the D form. Ends that are not written are not given here. Tyr(3-NO2) = N[C@@H](Cc1ccc(O)c([N+](=O)[O-])c1)C(=O)O; 2Abz = Nc1ccccc1C(=O)O

What was measured:
Format in all cases: biochemical
matriptase = biological target: T1, matriptase (Homo sapiens, UniProt Q9Y5Y6); assay: FRET peptide cleavage efficiency with matriptase; details: 200 uM linker, 1 ug/ml protease, 37° C., buffer B pH 9.0
T1 construct: purchased R&D Systems 3946-SEB
T1 sequence (Q9Y5Y6 615-855 limits assumed): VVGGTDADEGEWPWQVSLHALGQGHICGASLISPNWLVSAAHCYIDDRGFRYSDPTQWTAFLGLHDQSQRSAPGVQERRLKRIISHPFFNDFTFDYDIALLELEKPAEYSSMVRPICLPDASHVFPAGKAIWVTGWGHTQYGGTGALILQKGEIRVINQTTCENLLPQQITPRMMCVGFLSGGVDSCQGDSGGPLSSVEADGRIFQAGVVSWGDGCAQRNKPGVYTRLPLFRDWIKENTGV

uPA = uPA (Homo sapiens, UniProt P00749); assay: FRET peptide cleavage efficiency with uPA; details: 200 uM linker, 1 ug/ml protease, 37° C., buffer A pH 8.5
MMP-2 = biological target: T2, MMP-2 (Homo sapiens, UniProt P08253); assay: FRET peptide cleavage efficiency with MMP-2; details: 200 uM linker, 1 ug/ml protease, 37° C., buffer C pH 7.5
T2 construct: purchased SIGMA PF023
T2 sequence (P08253 110-660): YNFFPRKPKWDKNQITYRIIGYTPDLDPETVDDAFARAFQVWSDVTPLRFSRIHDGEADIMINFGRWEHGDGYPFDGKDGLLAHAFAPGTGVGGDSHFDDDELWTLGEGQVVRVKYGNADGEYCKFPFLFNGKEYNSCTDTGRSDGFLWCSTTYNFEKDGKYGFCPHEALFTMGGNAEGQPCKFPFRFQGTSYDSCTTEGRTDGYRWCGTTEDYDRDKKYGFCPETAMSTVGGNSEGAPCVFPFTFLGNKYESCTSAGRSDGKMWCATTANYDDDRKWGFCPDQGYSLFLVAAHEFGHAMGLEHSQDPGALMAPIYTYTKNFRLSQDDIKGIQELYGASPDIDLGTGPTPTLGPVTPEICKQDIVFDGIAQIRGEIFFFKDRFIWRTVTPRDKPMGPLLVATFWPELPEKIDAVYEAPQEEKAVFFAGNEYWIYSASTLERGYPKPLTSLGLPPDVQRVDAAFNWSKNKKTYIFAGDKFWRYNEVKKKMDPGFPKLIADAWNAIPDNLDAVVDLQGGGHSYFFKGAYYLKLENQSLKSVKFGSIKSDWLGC

Row | Sequence | % cleavage Matriptase t = 15 min (matriptase) | % cleavage Matriptase t = 60 min (matriptase) | % cleavage Matriptase t = 120 min (matriptase) | % cleavage uPA t = 15 min (uPA) | % cleavage uPA t = 60 min (uPA) | % cleavage uPA t = 120 min (uPA) | % cleavage MMP-2 t = 15 min (MMP-2) | % cleavage MMP-2 t = 60 min (MMP-2) | % cleavage MMP-2 t = 120 min (MMP-2)
1 | PASNRRLPLGLAG ([2Abz]PASNRRLPLGLAG[Tyr(3-NO2)]-NH2) [LNK018] | 49% | 92% | 97% | 0% | 0% | 0% | 40% | 83% | 87%
2 | SGRVLGPLNLSG ([2Abz]SGRVLGPLNLSG[Tyr(3-NO2)]-NH2) [LNK008] | 20% | 72% | 92% | 1% | 1% | 2% | 71% | 99% | 99%
3 | SSRAVFRKNLGPLGLAG ([2Abz]SSRAVFRKNLGPLGLAG[Tyr(3-NO2)]-NH2) [LNK002] | 89% | 85% | 84% | 5% | 10% | 18% | 77% | 99% | 98%
4 | RQRRSVVGG ([2Abz]RQRRSVVGG[Tyr(3-NO2)]-NH2) [LNK029] | 96% | 96% | 98% | 0% | 0% | 1% | 0% | 0% | 0%
5 | SGRVLTLRKAALPLAM ([2Abz]SGRVLTLRKAALPLAM[Tyr(3-NO2)]-NH2) [LNK020] | 98% | 99% | 99% | 11% | 26% | 45% | 55% | 98% | 99%
